Source: article PMC6056229, “Cryo-EM structure of the polycystin 2-l1 ion channel” (eLife, 2018)

Target: the molecule itself
Test: cryo-EM structure; single particle cryo-EM of purified full-length polycystin 2-l1 in amphipol PMAL-C8, HKN buffer (HEPES 50, KCl 150, NaCl 50, CaCl2 5 mM; pH 7.5), C4 symmetry imposed, 3.3 Å

B1: human polycystic kidney disease 2-like 1 (polycystin 2-l1) ion channel (natural protein, UniProt Q9P0L9 1-805, looked up)
chain: MNAVGSPEGQELQKLGSGAWDNPAYSGPPSPHGTLRVCTISSTGPLQPQPKKPEDEPQETAYRTQVSSCCLHICQGIRGLWGTTLTENTAENRELYIKTTLRELLVYIVFLVDICLLTYGMTSSSAYYYTKVMSELFLHTPSDTGVSFQAISSMADFWDFAQGPLLDSLYWTKWYNNQSLGHGSHSFIYYENMLLGVPRLRQLKVRNDSCVVHEDFREDILSCYDVYSPDKEEQLPFGPFNGTAWTYHSQDELGGFSHWGRLTSYSGGGYYLDLPGSRQGSAEALRALQEGLWLDRGTRVVFIDFSVYNANINLFCVLRLVVEFPATGGAIPSWQIRTVKLIRYVSNWDFFIVGCEVIFCVFIFYYVVEEILELHIHRLRYLSSIWNILDLVVILLSIVAVGFHIFRTLEVNRLMGKLLQQPNTYADFEFLAFWQTQYNNMNAVNLFFAWIKIFKYISFNKTMTQLSSTLARCAKDILGFAVMFFIVFFAYAQLGYLLFGTQVENFSTFIKCIFTQFRIILGDFDYNAIDNANRILGPAYFVTYVFFVFFVLLNMFLAIINDTYSEVKEELAGQKDELQLSDLLKQGYNKTLLRLRLRKERVSDVQKVLQGGEQEIQFEDFTNTLRELGHAEHEITELTATFTKFDRDGNRILDEKEQEKMRQDLEEERVALNTEIEKLGRSIVSSPQGKSGPEAARAGGWVSGEEFYMLTRRVLQLETVLEGVVSQIDAVGSKLKMLERKGWLAPSPGVKEQAIWKHPQPAPAVTPDPWGVQGGQESEVPYKREEEALEERRLSRGEIPTLQRS
modifications: glycan at N207; disulfide bond C210-C223
notes: polycystin 2-l1 (PKD2L1), human, full length; synthetic gene, not codon optimized; UniProt Q9P0L9; No cleavage of the MBP tag is described; fractions were found by western blot against MBP during the preparation for cryo-EM; The N terminus, the S4-S5 linker and the C terminus are not resolved in the map; also called PKD2L1; PC-2L1
stoichiometry N: 4
